# Reference: article PMC7865249
# Legend:
# [1] = target: H111A HupZ-V5-His6 (Streptococcus pyogenes (Group A Streptococcus)); assay: SEC; protein reconstituted with 1.2 eq hemin and desalted, 200 uM, 1 mL injected; Superdex Increase 200 10/300 GL, 20 mM Tris-HCl, 50 mM NaCl, pH 7.4, 0.4 mL/min; mass from a calibration curve of standards
# [2] = target: H111A HupZ-V5-His6 (Streptococcus pyogenes (Group A Streptococcus)); assay: SEC; ligand-free protein, 200 uM, 1 mL injected; Superdex Increase 200 10/300 GL, 20 mM Tris-HCl, 50 mM NaCl, pH 7.4, 0.4 mL/min; mass from a calibration curve of standards
# [3] = target: HupZ-V5-His6 (heme utilization protein Z with a C-terminal V5-His6 tag) (Streptococcus pyogenes (Group A Streptococcus)); assay: SEC; protein reconstituted with 1.2 eq hemin and desalted, 200 uM, 1 mL injected; Superdex Increase 200 10/300 GL, 20 mM Tris-HCl, 50 mM NaCl, pH 7.4, 0.4 mL/min; mass from a calibration curve of standards
# [4] = target: HupZ-V5-His6 (heme utilization protein Z with a C-terminal V5-His6 tag) (Streptococcus pyogenes (Group A Streptococcus)); assay: SEC; ligand-free protein, 200 uM, 1 mL injected; Superdex Increase 200 10/300 GL, 20 mM Tris-HCl, 50 mM NaCl, pH 7.4, 0.4 mL/min; mass from a calibration curve of standards
Substance,stoichiometry N [1],stoichiometry N [2],stoichiometry N [3],stoichiometry N [4]
H111A HupZ-V5-His6 (natural protein),2,2,–,–
HupZ-V5-His6 (heme utilization protein Z with a C-terminal V5-His6 tag) (natural protein),–,–,2,2
